15 molecules from patent EP2469278A1, “Reagentless fluorescent biosensors from nanofitins, rational design methods to create reagentless fluorescent biosensors and methods of their use” (Institut Pasteur, priority 2010, dated 2012) can be followed below.

Numbering of substitutions follows the chain as printed. Numbers in names are those of the source. Where “and” joins values, the source holds several entries; their conditions need not be identical. Equal values may be shown once.

B1: Lys24: H4S conjugate: residue Lys24 changed into cysteine and coupled with IANBD (SEQ ID NO: 61) (conjugate)
chain: MRGSHHHHHHGSVKVKFFWNGEEKEVDTSKIVWVCRAGKSVLFIYDDNGKNGYGDVTEKDAPKELLDMLARAEREKKLN
modifications: IANBD fluorophore on Cys24
B2: Ala26: H4S conjugate: residue Ala26 changed into cysteine and coupled with IANBD (SEQ ID NO: 62) (conjugate)
chain: B1 chain with C35K, A37C
modifications: IANBD fluorophore on Cys26
B3: H4S(wt) (designed binder)
chain: B1 chain with C35K
notes: Nanofitin derived from Sac7d (Sulfolobus acidocaldarius), H4 with Cys29 changed into Ser29; His-tagged; also called H4S protein; parental Nanofitin H4S(wt)
B4: H4S cysteine mutant V21C (not conjugated) (designed binder)
chain: B1 chain with V32C, C35K
notes: Free cysteine mutant, measured in reducing conditions
B5: H4S cysteine mutant W8C (not conjugated) (designed binder)
chain: B1 chain with W19C, C35K
notes: as for B4
B6: H4S(K24C) (not conjugated) (designed binder)
chain: B1 chain
notes: as for B4
B7: H4S cysteine mutant A26C (not conjugated) (designed binder)
chain: B1 chain with C35K, A37C
notes: as for B4
B8: H4S cysteine mutant K39C (not conjugated) (designed binder)
chain: B1 chain with C35K, K50C
notes: as for B4
B9: H4S(A26ANBD) (designed binder)
chain: B1 chain with C35K, A37C
modifications: Cys at position 26 (H4S numbering) coupled to IANBD ester (ANBD)
notes: also called Ala26
B10: H4S(K24ANBD) (designed binder)
chain: B1 chain
modifications: Cys at position 24 (H4S numbering) coupled to IANBD ester (ANBD)
notes: also called H4S(Lys24ANBD); Lys24
B11: H4S conjugate, IANBD fluorophore coupled at position Tyr42 (designed binder)
chain: B1 chain with C35K, Y53C
modifications: Cys at position 42 (H4S numbering) coupled to IANBD ester (ANBD)
B12: H4S conjugate, IANBD fluorophore coupled at position Val21 (designed binder)
chain: B1 chain with V32C, C35K
modifications: Cys at position 21 (H4S numbering) coupled to IANBD ester (ANBD)
B13: H4S conjugate, IANBD fluorophore coupled at position Thr46 (designed binder)
chain: B1 chain with C35K, T57C
modifications: Cys at position 46 (H4S numbering) coupled to IANBD ester (ANBD)
B14: H4S conjugate, IANBD fluorophore coupled at position Trp8 (designed binder)
chain: B1 chain with W19C, C35K
modifications: Cys at position 8 (H4S numbering) coupled to IANBD ester (ANBD)
B15: H4S conjugate, IANBD fluorophore coupled at position Trp22 (designed binder)
chain: B1 chain with W33C, C35K
modifications: Cys at position 22 (H4S numbering) coupled to IANBD ester (ANBD)

The target in one experiment is T1, hen egg-white lysozyme (HEL) (Gallus gallus, UniProt P00698).
T1 construct: hen egg-white lysozyme (HEL); purchased Sigma
Put plainly: Titration of H4S conjugates with HEL, monitored by fluorescence. The format is binding. Conditions: HEL; rounded value quoted in text; read-out: Kd. The procedure: (§1) The binding and fluorescence experiments were performed at equilibrium as if the preparations of conjugates were homogeneous, i. e. as if yc = 1. The binding reactions were conducted by incubating 0.3 µM of conjugate with variable concentrations of the HEL or BSA antigens in a volume of 1 mL, for 30 min in the dark with gentle shaking. The reactions were carried out in Buffer C or in a mixture v:(1-v) of calf serum and Buffer C as indicated in example 2.
The conjugate (or biosensor) B and antigen A form a 1:1 complex B:A according to the reaction: B + A↔B:A [formula] At equilibrium, the concentration [B:A] of the complex is given by the equation: [B:A] = 0.5{[B]0+[A]0+Kd-(((([B]0+[A]0+Kd))^2-4[B]0[A]0))^(1/2)} [formula] where Kd is the dissociation constant, and [A]0 and [B]0 are the total concentrations of A and B, respectively (Renard et al., 2003).
The fluorescence of the IANBD conjugates was excited at 485 nm (5 nm slit width) and its intensity measured between 520 and 550 nm (20 nm slit width) with a FP-6300 spectrofluorometer (Jasco). The signal of HEL alone or BSA alone was measured in an independent experiment and subtracted from the global signal of the binding mixture to give the specific fluorescence intensity F of each conjugate. The intensity F at a given value of [A]0 satisfies the following equation: (F-F0)/F0 = ΔF/F0 = (ΔF∞/F0)([B:A]/[B]0) [formula] where F0 and F∞ are the values of F at zero and saturating concentrations of A (Renard et al., 2003). The values of ΔF∞/F0, Kd, and [B]0 could be determined by fitting Equation 5, in which [B:A] is given by Equation 4, to the experimental values of ΔF/F0, measured in a titration experiment. The fittings were performed with the Kaleidagraph software (Synergy Software).
The sensitivity s and relative sensitivity sr of a conjugate can be defined by the following equations for the low values of [A]0, i. e. in the initial part of the titration curve: ΔF = s[A]0 [formula] ΔF/F0 = sr [A]0 /[B]0 [formula] s and sr can be expressed as functions of characteristic parameters of the conjugate: sr = (ΔF∞/F0)([B]0/(Kd+[B]0)) [formula] s = fb sr [formula] where fb = F0/[B]0 is the molar fluorescence of the free conjugate (Renard and Bedouelle, 2004). Equation 8 implies that sr is maximal when the biosensor B is present at a concentration [B]0 >> Kd, as every newly titrated molecule A then forms a complex. Equation 6 implies that the lower limit of detection δ[A]0 of the conjugate is linked to the lower limit of measurement of the spectrofluorometer δF by the following equations: δ[A]0 = s^-1 δF = sr^-1 [B]0 (δF/F0) [formula]
As to B1, the Kd is 100 nM.

The experiment is the same for the next values; noted with them: [B]0 = 0.3 µM; δF/F0 = […] (Equation 10).
Take B1: the “lower limit of detection δ[A]0” value is on record as 0.35 nM.

Staying with this experiment, now noted: relative sensitivity of the conjugate at a fixed concentration of 0.3 µM (Equation 8), HEL, buffer C.
As for B2, the sr worked out at 4.66.
B1: the sr was found to be 6.61.

The same experiment, now with this note: relative sensitivity of the conjugate at a fixed concentration of 0.3 µM (Equation 8), HEL, buffer C; listed as H4S(Lys24ANBD).
On to B1, for which the sr is 6.6.

Another experiment has as its target T1, hen egg-white lysozyme (HEL). Put plainly: Selectivity: fluorescence signal of conjugate in mixtures of calf serum and buffer C. The format is binding. Conditions: in ≤ 50 % serum; 0.3 µM conjugate, 10 µM HEL. As for the experimental part:
as §1
The selectivity of a biosensor refers to the extent to which it can recognize a particular analyte in a complex mixture without interference from other components (Vessman et al., 2001). The selectivity of the H4S(K24ANBD) conjugate was characterized by comparing its fluorescence properties in serum and in buffer C. More specifically, the variations of the F0 and F10µM parameters were measured as functions of the concentration in serum (Figure 3). Given that Kd = 0.1 µM for H4S(K24ANBD), this conjugate was fully saturated with HEL at 10 µM. […] As expected, the absorbance of the serum alone increased linearly with its concentration, in agreement with the Beer-Lambert law, at both 485 nm and 536 nm, which were the wavelengths of fluorescence excitation and emission in our experiments. […] The same increase and decrease was observed when measuring the fluorescence of a conjugate between IANBD and 2-mercaptoethanol. […]
B1: the “(F10µM - F0)/F0” value is on record as no less than 0.25.

The experiment is the same for the next values; noted with them: serum (v/v) in buffer C; 0.3 µM conjugate, 10 µM HEL.
For the molecule B1, the “concentration of serum in which the conjugate could still operate” value is no more than 50%.

The next experiment has as its target T2, hen egg-white lysozyme (hen, UniProt P00698 19-147).
T2 construct: also called HEL
Kind of experiment: Biacore kinetics, HEL immobilised; Kd' = koff/kon.
Conditions: not given
A general note: SPR reads the build-up and loss of mass on a sensor chip optically.
As for B3, binding was characterised by a dissociation constant (Kd) of 31 nM.
Molecule B4 registered a Kd of 332 nM.
B5 displayed a Kd of 68 nM.
Consider B6, for which the Kd was 117 nM.
Consider B7, for which binding was put at a Kd of 60 nM.
With B8, the Kd is 38 nM.

A further experiment addresses T3, bovine serum albumin (bovine, UniProt P02769 25-607).
T3 construct: Heterologous antigen used as specificity control; also called BSA
Kind of experiment: fluorescence titration with BSA, 0.3 µM conjugate, buffer C.
Conditions: not given
B9 showed a Kd of 1400 nM.
Consider B10, for which binding was characterised by a dissociation constant (Kd) of 1000 nM.

A further experiment concerns the target T2, hen egg-white lysozyme. Kind of experiment: Biacore, HEL immobilised; Kd'' dissociation constant at steady state.
Conditions: not given
Regarding B3, the Kd turned out to be 18 nM.
Turning to B4, the Kd was 389 nM.
For B5, binding was put at a Kd of 66 nM.
On to B6, for which the Kd was 104 nM.
The molecule B7 returned a Kd of 54 nM.
In the case of B8, the Kd is 24 nM.

Another experiment has as its target T2, hen egg-white lysozyme. Put plainly: fluorescence titration in solution, 0.3 µM conjugate, buffer C, 25 °C.
Conditions: not given
On to B11, for which the affinity, expressed as Kd, was 2480 nM and the “ΔF∞/F0 (maximal relative variation of fluorescence on HEL binding)” value was determined as 6.6.
With B12, the affinity, expressed as Kd, was 296 nM and the “ΔF∞/F0 (maximal relative variation of fluorescence on HEL binding)” value amounted to 6.3.
For the molecule B9, the Kd worked out at 206 nM and the “ΔF∞/F0 (maximal relative variation of fluorescence on HEL binding)” value came out at 7.9.
Take B13: the Kd worked out at 100 nM and the “ΔF∞/F0 (maximal relative variation of fluorescence on HEL binding)” value stood at 0.36.
Consider B10, for which binding was characterised by a dissociation constant (Kd) of 98 nM and the “ΔF∞/F0 (maximal relative variation of fluorescence on HEL binding)” value worked out at 8.8.
For B14, in that order: 189 nM and 1.47.

The target of the next experiment is T2, hen egg-white lysozyme. Put plainly: comparison of Kd in solution (fluorescence titration against competition Biacore).
Conditions: not given
With B10, the “fold lower affinity than the parental protein H4S(wt)” value was roughly 2 fold.

The target of a further experiment is T2, hen egg-white lysozyme. Put plainly: competition Biacore in solution, buffer D; free H4S measured on immobilised HEL.
Conditions: not given
In turn, B3 displayed a Kd of 40.3 nM.

Another experiment concerns the target T2, hen egg-white lysozyme. Kind of experiment: fluorescence titration in solution, 0.3 µM conjugate, buffer C, 25 °C (fit R = 0.72).
Conditions: not given
B15 had a Kd of 1230 nM.

Another experiment has as its target T2, hen egg-white lysozyme. Put plainly: from Kd in solution: fluorescence titration of conjugate against competition Biacore of H4S(wt).
Conditions: not given
Regarding B11, the “ΔΔG (conjugate against H4S(wt))” value is no less than 1.5 kcal/mol.
Same read-out and setting: the value for B15 was no less than 1.5 kcal/mol.
As to B12, the “ΔΔG (conjugate against H4S(wt))” value was ≥ 0.5 kcal/mol and ≤ 1.2 kcal/mol.
On the same count and under the same terms, for B9 the value was ≥ 0.5 kcal/mol and ≤ 1.2 kcal/mol; for B13, no more than 0.5 kcal/mol; for B10, ≥ 0.5 kcal/mol and ≤ 1.2 kcal/mol.
Same read-out and setting: the value for B14 was ≥ 0.5 kcal/mol and ≤ 1.2 kcal/mol.

In another experiment the target is T2, hen egg-white lysozyme. Put plainly: Biacore kinetics, HEL immobilised on CM5 chip, buffer E (reducing), 25 °C, 1:1 Langmuir model.
Conditions: not given
Turning to B3, the koff came out at 0.015 s⁻¹ and the kon turned out to be 490000 M⁻¹ s⁻¹.
B4 yielded a koff of 0.011 s⁻¹ and a kon of 40000 M⁻¹ s⁻¹.
B5 came in with a koff of 0.03 s⁻¹ and a kon of 450000 M⁻¹ s⁻¹.
For B6, in that order: 0.023 s⁻¹ and 160000 M⁻¹ s⁻¹.
Take B7: the koff stood at 0.023 s⁻¹ and the kon was 380000 M⁻¹ s⁻¹.
For B8, in that order: 0.012 s⁻¹ and 310000 M⁻¹ s⁻¹.

Another experiment deals with bovine serum albumin (BSA) (Bos taurus, UniProt P02769). Put plainly: Specificity: titration of H4S conjugates with heterologous antigen BSA, monitored by fluorescence. Conditions: BSA as antigen, buffer C, 0.3 µM conjugate.
As to B2, the “ΔF∞/F0” value was determined as 0.73 ± 0.04.
The same measure, in the same setting: the value for B1 was 0.26± 0.01.

The same experiment, now with this note: [B]0 = 0.3 µM.
As for B2, the “relative sensitivities sr lower for BSA than for HEL” value was 36 fold.
With B1, the “relative sensitivities sr lower for BSA than for HEL” value is listed as 106 fold.

By Kd is commonly meant a measure of binding affinity in units of concentration. In general, koff refers to a measure of how fast the partners let go of each other. A higher koff goes with a short-lived complex. One may read the kon as a measure of how fast the partners come together. Lower therefore signals slow association.
